From PMC9036094, “Antigen-derived peptides engage the ER stress sensor IRE1α to curb dendritic cell cross-presentation” (The Journal of Cell Biology, 2022)

Assays:
IRE1α in TAP1 KO BMDCs = assay: IRE1α activation in TAP1-disrupted BMDCs (immunoblot); type: cell-based, mouse; conditions: CRISPR/Cas9 TAP1; ovalbumin 500 μg/ml, 4 h
Procedure: Figure 1. Antigen pulsing of BMDCs activates IRE1α. (A) BMDCs were pulsed with ovalbumin (starting at 62.5 μg/ml and sequentially doubled) and analyzed by immunoblot (IB) for the indicated markers. (B) BMDCs were pulsed with ovalbumin (starting at 500 μg/ml and sequentially halved) or […] (1 μM), or stimulated with tunicamycin (1 μg/ml) or poly-I:C (25 μg/ml) for 4 h, and analyzed by IB. (C) BMDCs were pulsed with ovalbumin (500 μg/ml) for indicated time points and analyzed by IB. (D) BMDCs were pulsed for 4 h with ovalbumin or lysates derived from the indicated cell lines (500 μg/ml protein) and analyzed by IB. […] (F) Upon removal from bone marrow, total bone marrow cells were transfected with non-targeting control (NTC) or TAP1-targeting gRNAs, along with CRISPR/Cas9 delivery constructs. Cells were then subjected to standard BMDC-differentiation protocol, pulsed with ovalbumin (500 μg/ml) for 4 h, and analyzed by IB. All IB images are representative of at least two similar experiments, and molecular weights represent kD. Source data are available for this figure: SourceData F1.
Cells were lysed in PBS solution supplemented with 1X radioimmunoprecipitation assay buffer (Millipore) and 2X Halt protease-phosphatase inhibitor cocktail (Thermo Fisher Scientific). […]

[1] = tested on: IRE1α in MyD88 KO Flt3L-derived BMDCs; assay: IRE1α activation in MyD88 KO Flt3L-derived BMDCs (immunoblot); type: cell-based, mouse; conditions: ovalbumin 500 μg/ml or LPS 10 μg/ml, 4 h
Procedure: Figure S1. Antigen pulsing of BMDCs activates IRE1α. (A) BMDCs were treated with MG132 (5 μM) or ovalbumin (500 μg/ml) for indicated time points and analyzed by IB. (B) BMDCs were pulsed with ovalbumin (500 μg/ml) and G9668 (3 μM) for indicated time periods and analyzed by IB. (C) Molecular structure, potency, and kinase selectivity of G9668. (D) Schematic representation of G9668 interaction with 220 kinases at 1 μM. Size and color of circles represent interaction strength. Analysis was conducted by KinomeScan. (E) BMDCs were pulsed for 4 h with APC-tagged ovalbumin or soluble CD4-Fc protein (500 μg/ml) with amiloride (10 μM); uptake of protein was assayed by flow cytometry (n = 3). (F) WT or MyD88 KO Flt3L-derived BMDCs were pulsed with ovalbumin (500 μg/ml) or soluble CD4-Fc protein (500 μg/ml), or treated with LPS (10 μg/ml) for 4 h and analyzed by IB. (G) MEFs and BMDCs were pulsed with ovalbumin or treated with Tg (100 nM) for 4 h and analyzed by IB. Images in A, B, F, and G represent at least two similar experiments, and molecular weights represent kD; E bar graphs represent mean ± SD from three independent biological repeats. Analysis for E was performed using unpaired, two-tailed t test; *, P ≤ 0.05; **, P ≤ 0.01. Source data are available for this figure: SourceData FS1. […]

B1: ovalbumin: classical protein antigen ovalbumin (Sigma-Aldrich) (protein)
chain: MGSIGAASMEFCFDVFKELKVHHANENIFYCPIAIMSALAMVYLGAKDSTRTQINKVVRFDKLPGFGDSIEAQCGTSVNVHSSLRDILNQITKPNDVYSFSLASRLYAEERYPILPEYLQCVKELYRGGLEPINFQTAADQARELINSWVESQTNGIIRNVLQPSSVDSQTAMVLVNAIVFKGLWEKAFKDEDTQAMPFRVTEQESKPVQMMYQIGLFRVASMASEKMKILELPFASGTMSMLVLLPDEVSGLEQLESIINFEKLTEWTSSNVMEERKIKVYLPRMKMEEKYNLTSVLMAMGITDVFSSSANLSGISSAESLKISQAVHAAHAEINEAGREVVGSAEAGVDAASVSEEFRADHPFLFCIKHIATNAVLFFGRCVSP
With B1 the “IRE1α stimulation upon TAP1 disruption” value (IRE1α in TAP1 KO BMDCs) was “prevented IRE1α stimulation” and the “IRE1α activation, MyD88 KO BMDCs” value [1] was “unimpeded IRE1α stimulation”.
